Results published in the DeepSol protein solubility set.

Assay: soluble on expression in E. coli; label from the status in PepcDB or PDB records

Sequence | soluble on expression in E. coli
MKIESWKEGDFVNVPGKQAVSLEEFYRMRETTDRILEYIDGAVLMSPSPSTQHQRISGRLHVQLFHFLEGKPCEVFHAPFDIELKNERIEGKKIVVPDLTVICDRSGLTDSKFVGVPTLIIEILSPSNQAYDLVFKLNLYMQYGVGEYWIVNPMHSVVQIYSLNDDGQYEQAGVWKETGMACSRALDGFSVDVEQLFRP | not soluble
MKIGFLGFGKSNRSLLKYLLNHQEAKFFVSEAKTLDGETKKFLEEHSVEYEEGGHTEKLLDCDVVYVSPGIKPDTSMIELLSSRGVKLSTELQFFLDNVDPKKVVGITGTDGKSTATALMYHVLSGRGFKTFLGGNFGTPAVEALEGEYDYYVLEMSSFQLFWSERPYLSNFLVLNISEDHLDWHSSFKEYVDSKLKPAFLQTEGDLFVYNKHIERLRNLEGVRSRKIPFWTDENFATEKELIVRGKKYTLPGNYPYQMRENILAVSVLYMEMFNELESFLELLRDFKPLPHRMEYLGQIDGRHFYNDSKATSTHAVLGALSNFDKVVLIMCGIGKKENYSLFVEKASPKLKHLIMFGEISKELAPFVGKIPHSIVENMEEAFEKAMEVSEKGDVILLSPGGASFDMYENYAKRGEHFREIFKRHGGDEV | soluble
MKIIARDRGTGKTTELVKESARTGQYILASNKSHVRAIEQIAKKAGVTIPYPVTVDEIVSMDRFTCASSIQRDGLLVDEAIMVLSKLIGLKITGATISLEGEQQC | not soluble
MKIIGKIGKGKVEVNEKTKFSILLNNVAKKADIAEGKRAVEDIIRVIYRHQPISTKKIAQKTRLPLPIVAKVRTILEREKILKRTERGAELTDLGKEFAENFLKLKYKKSLTCKTCNGRGIVLDEFFEDILNKVRVWAKRRPLVDTTIDQSFATPETSTYRAALMYERGDLEGKRILFVGDDDLTSLPTALTNMAEEIAVVDIDERILKLIEKFSQKEGVKIKTIKHDLRNPLPQDLKERFDVISTDPPYTVDGLKLFLSRGIEALGKEGIAYLSYSHKPIDEWLSIQKAITNMGFVISELIPNFNYYEGSEIIANTTFIARLVGKNLKINIGDTEKIYTGLVKPVIRYYKCLKCGKIHKVGEEVKKVEDLVCECGGKKFKMIKREKLKNELEHHHHHH | soluble
MKIIYCITKADNGGAQTHLIQLANHFCVHNDVYVIVGNHGPMIEQLDARVNVIIIEHLVGPIDFKQDILAVKVLAQLFSKIKPDVIHLHSSKAGTVGRIAKFISKSKDTRIVFTAHGWAFTEGVKPAKKFLYLVIEKLMSLITDSIICVSDFDKQLALKYRFNRLKLTTIHNGIADVPAVKQTLKSQSHNNIGEVVGMLPNKQDLQINAPTKHQFVMIARFAYPKLPQNLIAAIEILKLHNSNHAHFTFIGDGPTLNDCQQQVVQAGLENDVTFLGNVINASHLLSQYDTFILISKHEGLPISIIEAMATGLPVIASHVGGISELVADNGICMMNNQPETIAKVLEKYLIDSDYIKMSNQSRKRYLECFTEEKMIKEVEDVYNGKSTQ | not soluble
MKIKRLSLWHVPLTSHTAYYMAEGKTCDTVETAVLCIETDTGLTGWGEVCPIPHYLPAYARGVGPALSELAPVILSADPIGPEALMAKADAYLPDHRYAKSALDIALWDLTGQAAGLPLHALLGGQRQADLPLYHSITCIEPDEMARIAIEAQAQGMTQFQAKLGASGDWQTDVERLIKVREAVGSGPILYGDWNCGSTSLDATRTGRAVAHLDIMLEQPCATIEDCARVHSATGLPMKLDELVHDTASLLKAHQLGLMDVAALKLSKFGGLSATRRARDLCLHLGAKMCVEDTWGSDITTAAVLHLGAATDPARVLNVCDLSGYVSPRLAQDAPTRAQGRIAPPQAAGLGIAVDKTALGQPELILD | soluble
MKIKTLLSIITAMALLILGTEVATAQSTGVPTIDSGSPESNQPLNDTMITTKVKAELAIAEGIKSGDISVETVNGVVILTGTQPNEMLIKKAEEVAKSVKDVKQVDISGLTVNTTTAD | not soluble
MKIKWLGHACFLLTSDNGIRVVTDPYDNTVGYKVEKIDAEIVSTSHDHYDHNYVDMVSENAKHVKSEGKTNIDGIEITGVTSFHDDCKGAKRGKNVIFKFKIDGIDVCHLGDLGHVLSDSQVREIGNVDVLLVPVGGVYTIDYKGAVEVMKLVNPKITIPMHYKTPALSFDVDGVENFLSATGGKHIGKQEIELKKDEIENWPKVVALDYQ | soluble
MKILKDTVLFGLFASYADGVRNGEEKLSAAYDDFATLLATLPTDGTNICAQLRRLFYTKIELRGIQETVSTNGMERHVLFDVYIGKALALLDAEEQMMKEVLRHGGTEAMGLKEEAVCRNGKKGSVTLTWNGTDSDLIELVAALMAAGVIGTAEGRELKVVDVIRVFEEVFHLKINALYTKRGKVFDRCTDTTPFIDSLRRSYNRMLDARLA | not soluble
MKILVAVKQTAALEEDFEIREDGMDVDEDFMMYDLNEWDDFSLEEAMKIKESSDTDVEVVVVSVGPDRVDESLRKCLAKGADRAVRVWDDAAEGSDAIVVGRILTEVIKKEAPDMVFAGVQSSDQAYASTGISVASYLNWPHAAVVADLQYKPGDNKAVIRRELEGGMLQEVEINCPAVLTIQLGINKPRYASLRGIKQAATKPIEEVSLADIGLSANDVGAAQSMSRVRRMYIPEKGRATMIEGTISEQAAKIIQIINEFKGA | soluble
MKILVIGGPTAIGKSDLACCVAQKLNGEIISADSMAVYKFMDIGTAKPLECMKKVPHHLIDVVEPGGYFDAKIFEEMAKEKIEEIKRKGKVPIVVGGTYLYIQALLYGIDETPKPDWNLRNKLYEIARKKGNDYLYEKLKAIDPKYAKKIHKNDLRRIVRALEVFINTGKPFSSFHSWNKPKMDFVGIYLKRSPESLYKRIENRVYDMVKDGLLEEVKKLLEMGYENFLTSGQAIDYKEFVPCAKGEKSLEECIKEAIKNTKKQAKRQIRWFRKQGWHEIDLDKLSIEEACEEVVRIYKDANKTKLEHHHHHH | not soluble
MKIMGFYSQVILPRLLDWSLSDPTLATYRQELLTDVTGEVLEIGFGTGLNLAYYPSHIHKITTVDVNPGMNTIAQKRIDDSGIKVQQLLLSGENLPMADNTFDSVVSTWTLCSIANVEQALQEVYRVLKPGGKFFFLEHGLSNKPNVQVWQNRLTPIQKVLADGCHLNRNIQQLVEQSFDHVELKRFTPENFPDLMAHFYKGCATKKSILEHHHHHH | soluble
MKINNLVDLHCHILPAIDDGSPSLEASLELARQAVADGIRYILATPHHMDRHYLNHAGDVVAAVEAFQAELDVNDIPLTIFPGQEVHLNGQLMEKVDDLLSIDTGRHYLLLELPHEMVPSYLDEMIFQLSCEGITPVIAHPERNAQIIAEPQRLYKLAEDGVLAQVTATSLVGTFGEQVQRTAKEFVKCGLVQVVASDAHTLKNRGFAMTKAYQVLNEMDSKYPERFATNARDLLNGEQIEMGQIEIPRKQRKHWLF | not soluble
MKIQELKLFNGLTEDELQRSLVCSQSNIVEYEKDDYIFSQGERPRWIYMILSGEVLLEQINMAGRQTYAEYLGERQQFGVVDLFLKRKQYSYSARARSHVKLLKISSHFFYGTCENNCMHHSKILFNMMGVFAEEAEKKSKKIQLLTCGSLRQRIALYLLQNSGENKKVELMMNREELAASLNAARPSLSRELSQMQDEGIIKMEGRKSIKILDYSRLQEDLADVSD | not soluble
MKIRLLVSILCILFAGCALQQTNRALQPDQRWVTQTLPNGLTYHLYPDSEQEVSIRLYVHAGSMQETAQQAGYAHFIEHMAFNGTRHYQHNDVIRMFEQSGAQFGADFNALTGYDRTVYQLDLPNAQNIDKALLWFADIADGLAFDADEVEKEKGVILGEFRASRTENMSLEQQFYLHQIQGTSYADRDPLGSRELVQAATPDSLKAFYQQWYQPQLAELVITGNFTLEQGQQWVENYFSSWKKGSTEKPASIYHQALNNQDLVAPVTAGESPSLTLIFPQGSAAIKDYASQQEFWRDDVGEQLLHTRLVAAFNDAAQAITGIYATHYEIEGQRYTLISVGFAAEQREKVQALLLETLASMRDYGVTKNELDIILRGYREHLTFLQEDREAITPASHANQKVYSIVFDTPIQATLDYQASLSEFIASATPEMINRHIQQQLSQNPVWVVGVAATEDAQALNKALPQWRNDLAQPGNQPIDQQIDSPFTQQFTAGEVVKQLDINDDPQVTYWQLDNGIDVYYLRNIEAKDRVFVQYASSGGQFALPADLLPAAEIATAVQTRSGLDTLNGSQFDRYLRQKDIGFYSYIASTSHGFEANSKAQELPELLEILHLLSTQVKVSPDQLNSVKTEFTQNRSAYFDSPIGAFFRTVTNQSFIETSPYRIRTPEQIAQVTAQQIEQVHQRLFSEGRNNTLVIVGDIERSQITPMLRQYVASIPLSKGTLSPMTSQLIKPVAPRLELALNNENSTQYSLRLISETQPRTAKTVFIDDMLQRIATQRLLAEVREHQGLDYTPQVIPYVVDGDILNDWVLSALVDPKSEPQVAKVMHEVARELAQGVTQQELDVVKQKFLIDMKPLNKSPEQQAYFMLRYAIHHYGVETIYKVEELTKSITLDDINQRAQTLFGKDTMSQELIMTPKANPKG | not soluble
MKITFIGGGNMAGAMIGGLIHHGSTPSHICAVETDAMRRQQLAEACGVTVTASIPDGIHGSEIVILAVKPQQLRAVANQAAQFLQNKLVISIAAGVRASDLSQWLNRHEFVIRAMPNTPALIGEGITGLYALPLVDSRQKEQATTILEAIGTVIWVNEEAQLDAVTALSGSGPAYVFYFLEAMQEAGTQLGLTADTAKQLAMQTFLGATHLAAQSNDTLATLRMKVTSQGGTTEQALLSMEQADIRGAFIRAMHAACDRSRQMGEIFGRTLEHHHHHH | soluble
MKITHCKLKKEVQKEPLRSFVPEVTARSAADILGIHPDSAALFYRKIRTVANHRLALAADGVFEGPAGPGGSYFGGRRKGRRGRGAAGKAVVFGIPKRNGRAYTVAADNAEPETLPPAVKKKIMPDGIVYADSPGSRGKLDAGGFTRCRINRSKEFADRRNHINGIGDFWNQAKRALRKYNGIDRKPFPPFLRECEFRLNFGTPSRQLKILRDRCGILEHHHHHH | not soluble
MKITLSKRIGLLAFLLPCALALSTTVHAETNKLVIESGDSAQSRQHAAMEKEQWNDTRNLRQKVNKRTEKEWDKADAAFDNRDKCEQSANINAYWEPNTLRCLDRRTGRVITPLEHHHHHH | not soluble
MKIVEGVSLHLIKNQQFKTNHLTFRFSGDFNNKTVARRSLVAQMLVTANAKYPKVQEFREKLASLYGASLSTKISTKGLVHIVDIDIVFVKNTFTLEQENIVEQIITFLEDMLFSPLISLEQYQTSIFDTEKKN | not soluble
MKIVIAPDSFKESLSALEVAEAVERGFRTVFPEAEYVKVPMADGGEGTVRSLVDATGGRIVETEVTGPLGEPVRAFFGLLGDGKTAVIEMAAASGLHLVPRDRRNPLVTTTRGTGELILAALDAGATHLIIGIGGSATNDGGAGMVQALGGRLLDEDGCDIGPGGGALADLHAIDLSGLDPRLGGVRIDVACDVDNPLTGPNGASAIFGPQKGATPDMVAVLDRNLAHYADVIRRDLGKQVGDIPGAGAAGGLGAGLLAFLPAELKRGVEIVIETVQLAERVKDADLVITGEGRIDGQTVFGKTPIGVAKTAKQFGVPVIGIAGSLGDDSAVVLDHGIDALFTIVPGVVPLEKALEQAEHYVTQTARHIASVYRLGQMKGTSSS | not soluble
MKIVMKISEVRGEILLAAADADIVGKKFREKNLHIEVYPSFYGEVRVTDEMFISSMNICTIANLVGEYTIGVAIDAGFIEKDNILYIQKVPYAQYAKIFQ | soluble
MKIVTFQGGLGNQLFQYVFYLWLDMRCDKDNIYGYYPKKGLRAHNGLEIEKVFEVKLPNSSLSTDLIVKSIKLINKIFKNRQYISTDGRLDVNGVLFEGFWQDKYFWEDVDIVLNFRWPLKLDVTNSFIMTKIQANNSISIHIRRGDYLLPKYRNIYGDICNEEYYQKAIEYILKCVDDPFFFVFSDDIDWAKSIINVSNVTFVNNNKGKDSYIDMFLMSLCHHNIIANSTFSWWAAQLNKHSDKIMIAPIRWFKSLFKDPNIFTESWIRILEHHHHHH | not soluble
